How the values were obtained:
Type in all cases: cell-based, Saccharomyces cerevisiae
Hua2 and Lsb3 = assay: Quadrant classification of Abp1 SH3 variants from DMS scores (Abp1-Hua2 and Abp1-Lsb3 DHFR-PCA); settings: class by effect on Hua2 and Lsb3 PPIs (Dest. both / Dest. Hua2 / Dest. Lsb3 / Neutral)
Hua2 = assay: Deep mutational scanning of Abp1 SH3, Abp1-Hua2 DHFR-PCA (DMS score); settings: for hua2sc (DMS score): Frequencies scaled to the synonymous mutation distribution (DMS score), Hua2; for HUA2_MTX2: frequencies normalized to the reference condition, Abp1-Hua2, MTX2
Procedure, shortened: (§1)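 Yeast, genomic ABP1 SH3 single-codon mutant pool (58 positions, NNN) × DHFR F[3] prey; diploid selection, then 2 cycles PCA selection medium, 72 h, 30 °C each. Readout: Illumina sequencing of SH3 locus vs. unselected diploid reference (S2). Biological duplicates.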

Lsb3 = assay: Deep mutational scanning of Abp1 SH3, Abp1-Lsb3 DHFR-PCA (DMS score); settings: for lsb3sc (DMS score): Frequencies scaled to the synonymous mutation distribution (DMS score), Lsb3; for LSB3_MTX2: frequencies normalized to the reference condition, Abp1-Lsb3, MTX2
Procedure, shortened: as §1

Sla1-GFP foci = assay: Live imaging of endocytosis, Sla1-GFP foci tracking (Fig. 4E-H, S5E-I); settings: for mean effective distance towards centroid: n 3286
Experimental: Overnight cultures of Sla1-GFP cells were diluted to an OD600 of 0.15 and grown in synthetic complete medium without tryptophan until they reached an OD600 of ~0.4–0.5 at 30 °C. The cells were then seeded on concanavalin A 0.05 mg/mL (Millipore Sigma) coated 8-well glass-bottom chamber slides (Sarstedt). Image acquisition was performed using a Perkin Elmer UltraVIEW confocal spinning disk unit attached to a Nikon Eclipse TE2000-U inverted microscope equipped with a Plan Apochromat DIC H 100×/1.4 oil objective (Nikon), and a Hamamatsu Orca Flash 4.0 LT + camera. Imaging was done at 25 °C in an environmental chamber. The software NIS-Elements (Nikon) was used for image capture. For each field, one brightfield and a series of fluorescence (GFP) images were taken. Cells were excited with a 488 nm laser and emission was filtered with a 530/630 nm filter. GFP time laps were acquired continuously at a rate of 1 frame/sec for 3 min.
Bright-field images were used to segment cells using YeastSpotter[60]. Cells were filtered based on circularity, solidity, and the normalized difference between minor and major axis lengths to remove poorly detected cells. Out-of-focus cells were also filtered out based on size and brightness. The centroids of the segmented cells were used to identify the locations of each cell in the image using Scikit-Image[61]. The location of each cell was used to isolate individual cell time-frames of fluorescence (GFP) images. Each cell time frame of the fluorescence images was processed through a python-based single-particle tracking tool—Trackpy[62]. Trackpy detected the locations of Sla1-GFP positive foci in each frame and linked them together to provide particle-wise trajectories. Trajectories detected in less than ten frames were considered spurious and were filtered out. Segments of the trajectories spuriously indicating movement of the particles back to the cell membrane were trimmed. The preprocessed trajectories of the particles were then used for the calculation of distances using the spatial distance module of “SciPy”[63]. The python-based code used for the analysis of microscopy images is included in the endocytosis module of “htsimaging” package.

[1] = test system: SH3-deleted bait proteins (1xFLAG); assay: Western blot expression level of SH3-deleted baits (Fig. S1F-G); settings: Western blot Flag signal, 1xFLAG-tagged WT or SH3-deleted bait; sheet FigS1F-G
Experimental: Precultures of yeast cells expressing baits fused with the DHFR F[1,2]-FLAG were grown overnight at 30 °C with agitation in synthetic complete medium. The next day, cells were expanded in synthetic complete medium to reach their exponential phase (OD600 of around 1.0), pelleted, and frozen at −80 °C. The equivalent of fifty OD600 of cells was resuspended in ice-cold yeast lysis buffer (10 mM Tris-HCl pH 7.4, 150 mM NaCl, 0.5 mM EDTA (Millipore Sigma), 1% Triton X-100 (Millipore Sigma), and one cOmplete Mini Protease Inhibitor Cocktail (Millipore Sigma) per 10 mL) with […] glass beads (Millipore Sigma) and disrupted at 4 °C by 10 cycles of 2 min vortexing and 2 min cooldown. The equivalent of […] of lysed cells was used for the immunoprecipitation of the bait proteins using FLAG-M2 agarose beads (Millipore Sigma). The beads were incubated with the cell lysates for 120 min at 4 °C with a slow rotation, followed by three washes with the yeast lysis buffer.
Protein extracts and affinity-purified baits from yeast and human lysed cells were migrated on 10% polyacrylamide gels. The separated proteins were then transferred to nitrocellulose membranes. Validation of correct protein loading was done with ponceau staining of the membranes. Before the primary antibody incubations, membranes were blocked in 5% milk. Protein signals were detected on an Amersham Imager 600RGB (GE Healthcare) following the incubation of the membranes with the appropriate HRP-conjugated secondary antibodies and the Clarity Western ECL Substrate (Bio-Rad). The antibodies used in this study are M2-HRP (A8592, Sigma, 1/50,000), rabbit anti-FLAG (F7425, Sigma, 1/1000), PAK (SC-881, Santa Cruz, 1/200), p130cas/BCAR1 (SC-860, Santa Cruz, 1/200), actin (Cell Signaling Technology, 1/2000), anti-mouse HRP (Cell Signaling Technology, 1/10,000) and anti-rabbit HRP (Cell Signaling Technology, 1/10,000). The quantification of the WB signals was performed with the Amersham Imager 600 analysis software (GE Healthcare).

[2] = Fig4H,S5G, SLA1 SH3-shuffled or -deleted strain

B1: ABP1 E13E (protein, UniProt P15891 2-592, looked up)
Actin-binding protein: ALEPIDYTTHSREIDAEYLKIVRGSDPDTTWLIISPNAKKEYEPESTGSSFHDFLQLFDETKVQYGLARVSPPGSDVEKIIIIGWCPDSAPLKTRASFAANFAAVANNLFKGYHVQVTARDEDDLDENELLMKISNAAGARYSIQTSSKQQGKASTPPVKKSFTPSKSPAPVSKKEPVKTPSPAPAAKISSRVNDNNDDDDWNEPELKERDFDQAPLKPNQSSYKPIGKIDLQKVIAEEKAKEDPRLVQKPTAAGSKIDPSSDIANLKNESKLKRDSEFNSFLGTTKPPSMTESSLKNDDDKVIKGFRNEKSPAQLWAERKAKQNSGNAETKAEAPKPEVPEDEPEGEPDVKDLKSKFEGLAASEKEEEEMENKFAPPPKKSEPTIISPKPFSKPQEPVKAEEAEQPKTDYKKIGNPLPGMHIEADNEEEPEENDDDWDDDEDEAAQPPLPSRNVASGAPVQKEEPEQEEIAPSLPSRNSIPAPKQEEAPEQAPEEEIEEEAEEAAPQLPSRSSAAPPPPPRRATPEKKPKENPWATAEYDYDAAEDNELTFVENDKIINIEFVDDDWWLGELEKDGSKGLFPSNYVSLGN
modifications: synonymous codon change E13E
**Q.** Which quadrant (Hua2 and Lsb3) does the source give for B1 here?
**A.** Neutral

**Q.** And the “hua2sc (DMS score)” value (Hua2)?
**A.** -0.2784

**Q.** What about the HUA2_MTX2 (Hua2) of the same molecule?
**A.** 1.334

**Q.** And the “lsb3sc (DMS score)” value (Lsb3)?
**A.** -0.3311

**Q.** And the LSB3_MTX2 (Lsb3)?
**A.** 1.169

B2: ABP1 D14D (protein, UniProt P15891 2-592, looked up)
Actin-binding protein: ALEPIDYTTHSREIDAEYLKIVRGSDPDTTWLIISPNAKKEYEPESTGSSFHDFLQLFDETKVQYGLARVSPPGSDVEKIIIIGWCPDSAPLKTRASFAANFAAVANNLFKGYHVQVTARDEDDLDENELLMKISNAAGARYSIQTSSKQQGKASTPPVKKSFTPSKSPAPVSKKEPVKTPSPAPAAKISSRVNDNNDDDDWNEPELKERDFDQAPLKPNQSSYKPIGKIDLQKVIAEEKAKEDPRLVQKPTAAGSKIDPSSDIANLKNESKLKRDSEFNSFLGTTKPPSMTESSLKNDDDKVIKGFRNEKSPAQLWAERKAKQNSGNAETKAEAPKPEVPEDEPEGEPDVKDLKSKFEGLAASEKEEEEMENKFAPPPKKSEPTIISPKPFSKPQEPVKAEEAEQPKTDYKKIGNPLPGMHIEADNEEEPEENDDDWDDDEDEAAQPPLPSRNVASGAPVQKEEPEQEEIAPSLPSRNSIPAPKQEEAPEQAPEEEIEEEAEEAAPQLPSRSSAAPPPPPRRATPEKKPKENPWATAEYDYDAAEDNELTFVENDKIINIEFVDDDWWLGELEKDGSKGLFPSNYVSLGN
modifications: synonymous codon change D14D
**Q.** With B2 as the molecule, how does the quadrant (Hua2 and Lsb3) read?
**A.** Neutral

**Q.** And the “hua2sc (DMS score)” value (Hua2)?
**A.** 0.002961

**Q.** What about the HUA2_MTX2 (Hua2) of the same molecule?
**A.** 1.616

**Q.** And the “lsb3sc (DMS score)” value (Lsb3)?
**A.** -0.6602

**Q.** And the LSB3_MTX2 (Lsb3)?
**A.** 0.8401

B3: Sla1 1|2|3: WT Sla1 (Sla1-GFP in imaging) (protein, UniProt P32790 1-1244, looked up)
Actin cytoskeleton-regulatory …: MTVFLGIYRAVYAYEPQTPEELAIQEDDLLYLLQKSDIDDWWTVKKRVIGSDSEEPVGLVPSTYIEEAPVLKKVRAIYDYEQVQNADEELTFHENDVFDVFDDKDADWLLVKSTVSNEFGFIPGNYVEPENGSTSKQEQAPAAAEAPAATPAAAPASAAVLPTNFLPPPQHNDRARMMQSKEDQAPDEDEEGPPPAMPARPTATTETTDATAAAVRSRTRLSYSDNDNDDEEDDYYYNSNSNNVGNHEYNTEYHSWNVTEIEGRKKKKAKLSIGNNKINFIPQKGTPHEWSIDKLVSYDNEKKHMFLEFVDPYRSLELHTGNTTTCEEIMNIIGEYKGASRDPGLREVEMASKSKKRGIVQYDFMAESQDELTIKSGDKVYILDDKKSKDWWMCQLVDSGKSGLVPAQFIEPVRDKKHTESTASGIIKSIKKNFTKSPSRSRSRSRSKSNANASWKDDELQNDVVGSAAGKRSRKSSLSSHKKNSSATKDFPNPKKSRLWVDRSGTFKVDAEFIGCAKGKIHLHKANGVKIAVAADKLSNEDLAYVEKITGFSLEKFKANDGSSSRGTDSRDSERERRRRLKEQEEKERDRRLKERELYELKKARELLDEERSRLQEKELPPIKPPRPTSTTSVPNTTSVPPAESSNNNNSSNKYDWFEFFLNCGVDVSNCQRYTINFDREQLTEDMMPDINNSMLRTLGLREGDIVRVMKHLDKKFGRENIASIPTNATGNMFSQPDGSLNVATSPETSLPQQLLPQTTSPAQTAPSTSAETDDAWTVKPASKSESNLLSKKSEFTGSMQDLLDLQPLEPKKAAASTPEPNLKDLEPVKTGGTTVPAAPVSSAPVSSAPAPLDPFKTGGNNILPLSTGFVMMPMITGGDMLPMQRTGGFVVPQTTFGMQSQVTGGILPVQKTGNGLIPISNTGGAMMPQTTFGAAATVLPLQKTGGGLIPIATTGGAQFPQTSFNVQGQQQLPTGSILPVQKTANGLISANTGVSMPTVQRTGGTMIPQTSFGVSQQLTGGAMMTQPQNTGSAMMPQTSFNAVPQITGGAMMPQTSFNALPQVTGGAMMPLQRTGGALNTFNTGGAMIPQTSFSSQAQNTGGFRPQSQFGLTLQKTGGIAPLNQNQFTGGAMNTLSTGGVLQQQQPQTMNTFNTGGVMQELQMMTTFNTGGAMQQPQMMNTFNTDGIMQQPQMMNTFNTGGAMQQPQQQALQNQPTGFGFGNGPQQSRQANIFNATASNPFGF
modifications: GFP tag in imaging
**Q.** What does the source list for B3?
**A.** complete (Sla1-GFP foci; [2]): 23.1408; incomplete (Sla1-GFP foci; [2]): 3.31; mean effective distance towards centroid (Sla1-GFP foci; time 0): 0; mean effective distance towards centroid (Sla1-GFP foci; time 1): 1.1628; mean effective distance towards centroid (Sla1-GFP foci; time 2): 1.132; mean effective distance towards centroid (Sla1-GFP foci; time 3): 2.413; mean effective distance towards centroid (Sla1-GFP foci; time 4): 3.293

B4: Bzz1 WT (protein, UniProt P38822 1-633, looked up)
Protein BZZ1: MSADLSIGNEIKDSFKETHKWVQNNLKWLKDIEQFYRERAKLEKDYSERLSRLSAEYFNKKSSTSVPISVGDTPTTTPGSIEAAGVVAWNEILSQTDMISKDHDQLSTDFENHVANQLSGLFTKLDMTLSKINGFNNDMVNKKDNIYHELEKAKKDYDEACSTMEMARNRYTKASNDRNKKKLDEKEMEMNKCKNEYLIKINQANRTKDKYYFQDVPEVLDLLQDVNEAKTLFLNDLWLKAASVENDLGANVSKRLQAANSVVKQNKPSLNTAIFIKHNLKNWKEPQDFVYKPSPVWHDDEKFAVPSSLEVEDLRIKLAKAENDYNSLQDKTQNELSKLSTLNKIKHEMKTNEDNINATKFYDTLKEYLNVVSPFTSHETLKLQAEVQIESIQNNVPEEYDLSTDNIDLSKTKKKSGIFSKFKHNILNVDSKPSSGGSTGNGNGGPLHITSLFNTSRRTRLGSAPNNAGEDSDNNSIRTTSTNNTKKTTQNSSDDGKNKVLYAYVQKDDDEITITPGDKISLVARDTGSGWTKINNDTTGETGLVPTTYIRISSAATVKANDRGPAPEVPPPRRSTLPVRTMEAIYAYEAQGDDEISIDPGDIITVIRGDDGSGWTYGECDGLKGLFPTSYCK
**Q.** B4 was tested. Which Flag [1] did it give?
**A.** 215050

Source: article PMC7954794, “Protein context shapes the specificity of SH3 domain-mediated interactions in vivo” (Nature Communications, 2021)
